23 sequences from a protein production outcome set (Wang et al. 2014) can be followed below.

A short description of this data set: label from the status in PepcDB records.
Consider “MEKAILITFLIATTSMVYQTIGQEEEISPISPESLAYEPAAAYEYDHELLSHMTTRRIKFLQDCSDKMSSKCNVEMTEGLIDDKPVSEDCCVNFLKIGRECHEGLMTFVFATYELKDVASAILPRSKRMWNKCVETTAAKIGAPLAFET”, for which the protein production entry was “failed”.
With “MICFIKTLFVKIKRKKTSYVTFFLMPILTTLLALSLSFSNNNQAKIGILDKDNSQISKQFIAQLKQNKKYDIFTKIKKEHIDHYLQDKSLEAVLTIDKGFSDKVLQGKSQKLNIRSIANSEITEWVKAQTNYLLENYNIIGDVALGNEDTFNRILQKNQQLNYDVKQVTLTDRSRSKAVSSTTTGFLLILMLGSTSVIYSGILADKSSQLYHRLMLSNLSRFRYMLSYVCVGFVAFTIQIVIMLSLLKVFNISFFVPTSLLLIIFFLFSLLAIGFGLLIGAITQNSQQSSQLANLIVMPTSMLAGCLWPLSITPSYMQAIGKLLPQNWVLSAIAIFQSGGTLSQAWPYLLALMGTALALISFSSLLLKPTKL”, the protein production result is listed as “failed”.
As for “MAGATDRDGWKVERGDDSWTVPGYIDLKKLGKGGAGRVMIARHAGTGRNVAIKYLNEELCSKVEFRTALRAEARLLGGLTSPHVTRLYEYVEAEQGAAIVMELVYGAALRTLLKKEGSTDIEAALVVLKGSLLGLAAAHGVGVVHRDYKPENVLVNWDGQTKLVDFGISARTGDRHNLRGTCAYMPPEQWKLEAATPAGDVYAATATLYECVTGVRPFEGPEPWDFQRQHVDEPVPMDRVPEEVRALVRHGMAKDPALRPPSALDFLRELEWAAENAYGPDWEERGQSRLAAVAAALVPLAISRLDARLVGSSAELARTVLTARRRSRLRRRGDVLTGAAAVAVVGLLSLMPSGWAAGGAEGHAGAHAQAVTRLDARKDTGSATEARGTEHGDTAESDPDSDRAGTSGAQGGGGHGDGGAGLAPADGGTRSDSGSGGGAGDSGTDSPDDGNNTVERNGGTENGGTENGGTENGGTENGGTENGGTENGGTENGGTENGGTENGGTENGGTENGGTENGGTENGGTENGGTENGGTENGGTENGGTENGGTENGGTENGGTENGGTENGGTENGGTENGGTENGGTENGGTDNGGTDNGGTDNGGTDARHGHSNAGTSDGDPASTGGTDSGNSAGGTGTGTGSGSTSAVTPRQGDPAAVEGEPG”, the entry is “failed”; as for “MGAVVVKDLRKRIGKKEILKGISFEIEEGEIFGLIGPNGAGKTTTLRIISTLIKPSSGIVTVFGKNVVEEPHEVRKLISYLPEEAGAYRNMQGIEYLRFVAGFYASSSSEIEEMVERATEIAGLGEKIKDRVSTYSKGMVRKLLIARALMVNPRLAILDEPTSGLDVLNAREVRKILKQASQEGLTILVSSHNMLEVEFLCDRIALIHNGTIVETGTVEELKERYKAQNIEEVFEEVVKCSENF”, “not failed”.
Consider “MAKVLVLNASYEPLNITHWQRAVVLLLKDKAEALENNGKLIYANFPLPSVIRLRQYIKVPYKEIPLTRRNVLERDRHTCQYCNYKGEQLTLDHVIPRSRGGGDSWENLVTACVRCNIKKGNRTPREAQMSLNYTPRRPYSSLLFEIIKHTRNDRNHEWRKYVIGILEHHHHHH”, for which the protein production entry is reported as “failed”.
In the case of “MPRFRSVFLALLVVPLVDAVFLVFVAGELGWQLTVALVVLTALLGTLFVRAEGRATLSRLQASVARGDPPTNELVDGGLLIAAGAFLLTPGLVTDALGFLIVIPVTRVAFRWGVKRYVTPKLDAKTGGFVSGNVYTFGFPGGDGGAGGDPRSGFGGGAGDGDDDTINLGDDAYDVSFEDDADGDQ”, the protein production entry was “failed”.
Take “MSELITYHAEDGIATLTLNNGKVNAISPDVITAFNAALDRATEERAVVIITGQPGILSGGYDLKVMTRGPQEAISLVTAGSTLARRLLSHPFPVVVACPGNAVAKGAFLLLSADYRIGVEGPYKVCLNEVQIGMTMHHAGIELARDRLRRSAFHRSVINAEVFDPQGAVDAGFLDKVVPAEQLQEAAMTAARELKKLN”: the protein production result is listed as “failed”.
Next, “MRAPLSTYRRPQRTDFVTPTGGPFFAKQDKALNTIDLKMAHDLKLRGYRVKVAVVDEGVRSDHPLLNVEKKYGGDYMADGTRTYPDPKRQGRHGTSVALVLAGQDTDTYRGGVAPNADLYSANIGTRAGHVSDEAAFHAWNDLLGHGIKIFNNSFATEGPEGEQRVKEDRNEYHSAANKQNTYIGRLDRLVRDGALLIFAAGNGRPSGRAYSEVGSVGRTPRVEPHLQRGLIVVTAVDENGRLETWANRCGQAQQWCLAAPSTAYLPGLDKDNPDSIHVEQGTSLSAPLVTGAAVLVQDRFRWMDNDNLRTTLLTTAQDKGPYGVDPQYGWGVLDVGRAVQGPAQFAFGDFVARVTDTSTFGLEHHHHHH”: “failed”.
As for “MSIDIQLFYLPLHTNNPLILNKQMKLRNVSAGIVLCLTMVSCIQDEALNVEAAIDGCSGTNIQLSTINPSSKTASIYVSKSTDLSALEIKFTLPDGASIEPVNAIANDAPPKYDFSTSQIPITPEQTLEQYQRKFRVTSESETTEAVYTITVIKSELPTNFHFENLVDGSSDYHELYEFNQQQGETLQWASGNPGFKLTGMAKSPFDYPTLQTEGYIGKGIRLETKSTGDFGEKVKMPIAAGNLFIGTFIVKDALRDAKAATKFGFPFFKHPKTLKGYYKFQPGTVYISGTDENRKPIIDPSMEGKDKGDIYAVLYEADDVEDFLDGYNSLNSNKIIALARIPSIEKTSEWKQFELPFEYKKAIDESALKEGKYKLAVVFSSSINGAEFKGSVGSTLWIDEVTIQCKEDNE”, the entry is “failed”; as for “MAQKLYPPIHPGEILMEDFIKGFGLTQNKVAVSIGVPPRRINEIVHGKRSITADTALRLGRYFGIDPQFWLSLQTQYELELDRDAGAATYAQITPLKVA”, “failed”.
In the case of “MAKDTDIRSRMNRIEEIIDQLDADEVSLDEGSELYEEGQELLTEIRERLHEGQGEVIEIK”, the protein production result is “not failed”.
With “MHPLLRRLDLNLLLVFDALYRHRNVGTAASELAISASAFSHALGRLRQGLDDELFLRQGNRMQPTQRAEHLAAAVAAALRALGEGLEEWRPFVPGQSQRTFVFAATDYTAFALLPPLMNRLQHSAPGVRLRLVNAERKLSVEALASGRIDFALGYDEEHERLPEGIQAHDWFADRYVVVARRDHPRLAGAPTLEGYLAERHAVVTPWNEDSGVIDRLLARSGLRREVAVQLPTVLAALFLAGSTDFLLTAPRHAARALAEAAGLALYPAPFDIPPYVLRLYSHVQHVGRDAHAWMIGQLKGLDISRTG”, the protein production result is recorded as “not failed”.
Next, “MIKMIVVLRLGHRPERDKRVTTHVALTARAFGADGIIIASEEDEKVKESVEDVVKRWGGPFFIEFNRNWRKVMKEFTGVKVHLTMYGLHVDDVIEELKEKLKKGEDFMIIVGAEKVPREVYELADYNVAIGNQPHSEVAALAVLLDRLLEGKGLKKEFKGAKIKIVPQARGKKVVEVQGYAEQDKAEGKATPGKNWENSGFTGDNP”: “not failed”; “MREEELNTEKVVAAIANPVENEVRKVWEDVVEKIEQRVAVIEQASHKLLQNKVSEEILSKAKVEAHKLAGSLGMFGSDEGSQIAQEIESLLDNGKKLKASGGKHLGQVVELEHHHHHH”: “failed”; “MSKVALFAGGDLSYISRDFDYFVGIDRGSLFLLENGLPLNMAVGDFDSVSQKAFTDIKEKAELFITAHPEKNDTDTELALKEVFARFPEAEVTIFGAFGGRMDHLLSNIFLPSDPGIAPFMAQIALRDQQNMITYRPAGQHLIHQEEGMTYVAFMAEGEADLTITGAKFELTQDNFFKKKIYSSNAFIHQPITVSLPSGYLIIIQSKDWSLEHHHHHH”: “not failed”.
As to “MRTSGGQMNISSATLANTQRTIDSYEGCADDYSRIVDQFPWPSLEAALRQVATAAGKGGQILEIGSGAGWDADFLETQGVSVRRTDATRRFLELQAARGKKGELLNVITDDLGGPYDAVVALCVLIHAPRDQTGPVLEKIVAALRPGGVFLVSMRDGDGETSGAYHMSYWRRDDFALCIKEAGLALEWDAHRVNRDGDGWHTFYARRPE”, the protein production result is reported as “failed”.
As for “MEKGTLVEFRVQGDRRLGVVDRPDGKTRWFVVDERGQSHSLAPRQITYTVNGNTYKPSEIDRFLEEVKPYLDPSSLEVAWELLVEDGETVTPSQMANLLFSESNSAPSYAAHCLLSDDKLYFKQKGDAYEPRTAAQVADRKHQIEVEALKARGQQEFLTRVEQALQGEAVEWQRHDRQRLEGLEKYGTLLADIVKVGLNYDSLARAYPPPAPVLETMNMLGRPATPQGAFQLLVDLGWWSATENLFLRRSSIPVQFPSKVLEVAQQRLDFPPTDLDTNRLDLTHLKVYTVDDESTTEIDDGLSWEKLPDDRERLWVHIADPTRYLAPEDDLDLEARKRGSTVYLPTGMIPMFPEVLATGPMSLVQGRVCCALSFGVVLDGTGAVQDFTIHPSLIKPTYRLTYEDVDEMLELGVQAEPEIAAIATWATKRKSWRYNQGAISINMPEAMIKVKNDDISIDILDDSRSRQLVAEMMILAGEVAARYGQVHNIPLPFRGQPQPELPPEDELLRLPAGFVRACAMRRCMPKSEMSITPVRHAGLGLDTYTQATSPIRRYSDLLTHFQLKAHLRGEVPPFTAEELKEVMMTVTSTTQELTMVERQTNRYWALEYLRRHPEEIWQVTVLMWLREDSNLALILLEDLGLQLPMVFKRSVRLGEQVLVKVSISDPQKDVIQFQEIIYQEAQTAAN”, the entry is “failed”; as for “VIVESLVYHLSGKTYESRLVYEPGALGRPGLVMAPNWMGIGEGAERIAKEVAEKGYVVLIADLYGQSVRPSNADEAGVAMMPLKNDRGELRKRMQEALAQLLGQSKALLEPGKVATFGFCFGGCCALELARSGADLRAAVSFHGTLDTPNPEDAKRIKGSVLVLHGASDPLVPKEQLPAFEDEMNAAKVDWQLLSYGGAVHSFTDPNANMPGKMQYDRRTSERAFRSMHNLLSEVF”, “failed”; as for “MNAPGLAIEGLGVAYGARTVIAGLSLGPLPHGTLTALLGPNGSGKSTLLKAVAGLLPARGGAIALDGQRLDQADLAQRAQQVAYLPQGLPADVHLRVFESVLVAARAHGGEAAGQIGPPAIAALLERLGIGHLALQFLDELSGGQKQLVGLAQALIRRPRVLLLDEPLSALDPNYQFHVMDLLRQETRDHGLITIAALHDINIALRHADQALLIRAGELAAAGEPAAVIDAPMLARVYGIQARVERCSRGHPHVLVDGVAGPVR”, “failed”.
As for “MNDQELRAYLSQAKTIAVLGAHKDPSRPAHYVPRYLREQGYRVLPVNPRFQGEELFGEEAVASLLDLKEPVDILDVFRPPSALMDHLPEVLALRPGLVWLQSGIRHPEFEKALKEAGIPVVADRCLMVEHKRLFRGPLPL”, the protein production result is “not failed”.
In the case of “MKSSDIDQDLFTDSYCKVCSAQLISESQRVAHYESRKHASKVRLYYMLHPRDGGCPAKRLRSENGSDADMVDKNKCCTLCNMSFTSAVVADSHYQGKIHAKRLKLLLGEKTPLKTTGLRRNYRCAICSVSLNSIEQYHAHLKGSKHQTNLKNK”, the protein production result was “failed”.
On to “MTGPLAAARSVAATKSMTAPTVDERPDIKKGLAGVVVDTTAISKVVPQTNSLTYRGYPVQDLAARCSFEQVAFLLWRGELPTDAELALFSQRERASRRVDRSMLSLLAKLPDNCHPMDVVRTAISYLGAEDPDEDDAAANRAKAMRMMAVLPTIVAIDMRRRRGLPPIAPHSGLGYAQNFLHMCFGEVPETAVVSAFEQSMILYAEHGFNASTFAARVVTSTQSDIYSAVTGAIGALKGRLHGGANEAVMHDMIEIGDPANAREWLRAKLARKEKIMGFGHRVYRHGDSRVPTMKRALERVGTVRDGQRWLDIYQVLAAEMASATGILPNLDFPTGPAYYLMGFDIASFTPIFVMSRITGWTAHIMEQATANALIRPLSAYCGHEQRVLPGTF”, for which the protein production result is reported as “not failed”.
In the case of “MFVGHLPGAYLIFRVVTPRIERMAFTAAMLGAIAPDLDMLRFYFVDGRAFHHHEYLTHRPILWTGLLLCGVLIGMRSRRIGVPLAFFGAGGLVHMLLDSIAGKIAWAWPVSDFAAPLVVVPATQSHWILSFLSHWTFAVELGITVLALVLWRWLPRRATARR”, the protein production entry was “failed”.
